Results reported in patent publication US7132258 (UNIVERSITY OF MASSACHUSETTS, dated 2006).

B1: VDR364* (LBD of hVDR truncated at amino acid 364) as Gal4 DBD fusion (receptor, UniProt P04386 1-147, looked up)
chain: MKLLSSIEQACDICRLKKLKCSKEKPKCAKCLKNNWECRYSPKTKRSPLTRAHLTEVESRLERLEQLFLLIFPREDLDMILKMDSLQDIKALLTGLFVQDNVNKDAVTDRLASVETDMPLTLRQHRISATSSSEESSNKGQRQLTVSMKEFILTDEEVQRKREMILKRKEEEALKDSLRPKLSEEQQRIIAILLDAHHKTYDPTYSDFCQFRPPVRVNDGGGSHPSRPNSRHTPSFSGDSSSSCSDHCITSSDMMDSSSFSNLDLSEEDSDDPSVTLELSQLSMLPHLADLVSYSIQKVIGFAKMIPGFRDLTSEDQIVLLKSSAIEVIMLRSNESFTMDDMSWTCGNQDYKYRVSDVTKAGHSLELIEPLIKFQVGLKKLNLHEEEHVLLMAICIVSPDRPGVQDAALIEAIQDRLSNTLQ
notes: domain: Gal4 DBD;domain: LBD of hVDR truncated at amino acid 364
B2: RAC3 amino acids 401-624 as GAL4 DBD fusion (pCMX-Gal) (other)
chain: MKLLSSIEQACDICRLKKLKCSKEKPKCAKCLKNNWECRYSPKTKRSPLTRAHLTEVESRLERLEQLFLLIFPREDLDMILKMDSLQDIKALLTGLFVQDNVNKDAVTDRLASVETDMPLTLRQHRISATSSSEESSNKGQRQLTVSMSMSPNQGLQMPSSRAYGLADPSTTGQMSGARYGGSSNIASLTPGPGMQSPSSYQNNNYGLNMSSPPHGSPGLAPNQQNIMISPRNRGSPKIASHQFSPVAGVHSPMASSGNTGNHSFSSSSLSALQAISEGVGTSLLSTLSSPGPKLDNSPNMNITQPSKVSNQDSKSPLGFYCDQNPVESSMCQSNSRDHLSDKESKESSVEGAENQRGPLESKGHKKLLQL
notes: domain: GAL4 DBD
B3: Gal4 DBD fusion of full-length human RARα (receptor, UniProt P04386 1-147, looked up)
chain: MKLLSSIEQACDICRLKKLKCSKEKPKCAKCLKNNWECRYSPKTKRSPLTRAHLTEVESRLERLEQLFLLIFPREDLDMILKMDSLQDIKALLTGLFVQDNVNKDAVTDRLASVETDMPLTLRQHRISATSSSEESSNKGQRQLTVSMASNSSSCPTPGGGHLNGYPVPPYAFFFPPMLGGLSPPGALTTLQHQLPVSGYSTPSPATIETQSSSSEEIVPSPPSPPPLPRIYKPCFVCQDKSSGYHYGVSACEGCKGFFRRSIQKNMVYTCHRDKNCIINKVTRNRCQYCRLQKCFEVGMSKESVRNDRNKKKKEVPKPECSESYTLTPEVGELIEKVRKAHQETFPALCQLGKYTTNNSSEQRVSLDIDLWDKFSELSTKCIIKTVEFAKQLPGFTTLTIADQITLLKAACLDILILRICTRYTPEQDTMTFSDGLTLNRTQMHNAGFGPLTDLVFAFANQLLPLEMDDAETGLLSAICLICGDRQDLEQPDRVDMLQEPLLEALKVYVRKRRPSRPHMFPKMLMKITDLRSISAKGAERVITLKMEIPGSMPPLIQEMLENSEGLDTLSGQPGGGGRDGGGLAPPPGSCSPSLSPSSNRSSPATHSP
notes: domain: Gal4 DBD;mature; also called full-length hRARα; pGBT-hRARα
B4: GST-RAC3-RID fusion (other)
chain: LESKGHKKLLQLLTCSSDDRGHSSLTNSPLDSSCKESSVSVTSPSGVSSSTSGGVSSTSNMHGSLLQEKHRILHKLLQNGNSPAEVAKITAQATGKDTSSITSCGDGNVVKQEQLSPKKKENNALLRYLLDRDDPSDALS
notes: Purified from DH5α cells, separated by SDS-PAGE, blotted, denatured and renatured on the filter; also called GST-RID fusion; not shown: glutathione S-transferase (GST) module
B5: RAC3 amino acids 401-695 as GAL4 DBD fusion (pCMX-Gal) (other)
chain: MKLLSSIEQACDICRLKKLKCSKEKPKCAKCLKNNWECRYSPKTKRSPLTRAHLTEVESRLERLEQLFLLIFPREDLDMILKMDSLQDIKALLTGLFVQDNVNKDAVTDRLASVETDMPLTLRQHRISATSSSEESSNKGQRQLTVSMSMSPNQGLQMPSSRAYGLADPSTTGQMSGARYGGSSNIASLTPGPGMQSPSSYQNNNYGLNMSSPPHGSPGLAPNQQNIMISPRNRGSPKIASHQFSPVAGVHSPMASSGNTGNHSFSSSSLSALQAISEGVGTSLLSTLSSPGPKLDNSPNMNITQPSKVSNQDSKSPLGFYCDQNPVESSMCQSNSRDHLSDKESKESSVEGAENQRGPLESKGHKKLLQLLTCSSDDRGHSSLTNSPLDSSCKESSVSVTSPSGVSSSTSGGVSSTSNMHGSLLQEKHRILHKLLQNGNSP
notes: domain: GAL4 DBD
B6: SNF1 (other, UniProt P06782 1-633, looked up)
chain: MSSNNNTNTAPANANSSHHHHHHHHHHHHHGHGGSNSTLNNPKSSLADGAHIGNYQIVKTLGEGSFGKVKLAYHTTTGQKVALKIINKKVLAKSDMQGRIEREISYLRLLRHPHIIKLYDVIKSKDEIIMVIEYAGNELFDYIVQRDKMSEQEARRFFQQIISAVEYCHRHKIVHRDLKPENLLLDEHLNVKIADFGLSNIMTDGNFLKTSCGSPNYAAPEVISGKLYAGPEVDVWSCGVILYVMLCRRLPFDDESIPVLFKNISNGVYTLPKFLSPGAAGLIKRMLIVNPLNRISIHEIMQDDWFKVDLPEYLLPPDLKPHPEEENENNDSKKDGSSPDNDEIDDNLVNILSSTMGYEKDEIYESLESSEDTPAFNEIRDAYMLIKENKSLIKDMKANKSVSDELDTFLSQSPPTFQQQSKSHQKSQVDHETAKQHARRMASAITQQRTYHQSPFMDQYKEEDSTVSILPTSLPQIHRANMLAQGSPAASKISPLVTKKSKTRWHFGIRSRSYPLDVMGEIYIALKNLGAEWAKPSEEDLWTIKLRWKYDIGNKTNTNEKIPDLMKMVIQLFQIETNNYLVDFKFDGWESSYGDDTTVSNISEDEMSTFSAYPFLHLTTKLIMELAVNSQSN
B7: Gal4 DBD fusion of full-length hRXRα (receptor, UniProt P04386 1-147, looked up)
chain: MKLLSSIEQACDICRLKKLKCSKEKPKCAKCLKNNWECRYSPKTKRSPLTRAHLTEVESRLERLEQLFLLIFPREDLDMILKMDSLQDIKALLTGLFVQDNVNKDAVTDRLASVETDMPLTLRQHRISATSSSEESSNKGQRQLTVSMDTKHFLPLDFSTQVNSSLTSPTGRGSMAAPSLHPSLGPGIGSPGQLHSPISTLSSPINGMGPPFSVISSPMGPHSMSVPTTPTLGFSTGSPQLSSPMNPVSSSEDIKPPLGLNGVLKVPAHPSGNMASFTKHICAICGDRSSGKHYGVYSCEGCKGFFKRTVRKDLTYTCRDNKDCLIDKRQRNRCQYCRYQKCLAMGMKREAVQEERQRGKDRNENEVESTSSANEDMPVERILEAELAVEPKTETYVEANMGLNPSSPNDPVTNICQAADKQLFTLVEWAKRIPHFSELPLDDQVILLRAGWNELLIASFSHRSIAVKDGILLATGLHVHRNSAHSAGVGAIFDRVLTELVSKMRDMQMDKTELGCLRAIVLFNPDSKGLSNPAEVEALREKVYASLEAYCKHKYPEQPGRFAKLLLRLPALRSIGLKCLEHLFFFKLIGDTPIDTFLMEMLEAPHQMT
notes: domain: Gal4 DBD;mature
B8: 35S-labeled hRARα (in vitro translated) (receptor, human, UniProt P10276 1-462, looked up)
chain: MASNSSSCPTPGGGHLNGYPVPPYAFFFPPMLGGLSPPGALTTLQHQLPVSGYSTPSPATIETQSSSSEEIVPSPPSPPPLPRIYKPCFVCQDKSSGYHYGVSACEGCKGFFRRSIQKNMVYTCHRDKNCIINKVTRNRCQYCRLQKCFEVGMSKESVRNDRNKKKKEVPKPECSESYTLTPEVGELIEKVRKAHQETFPALCQLGKYTTNNSSEQRVSLDIDLWDKFSELSTKCIIKTVEFAKQLPGFTTLTIADQITLLKAACLDILILRICTRYTPEQDTMTFSDGLTLNRTQMHNAGFGPLTDLVFAFANQLLPLEMDDAETGLLSAICLICGDRQDLEQPDRVDMLQEPLLEALKVYVRKRRPSRPHMFPKMLMKITDLRSISAKGAERVITLKMEIPGSMPPLIQEMLENSEGLDTLSGQPGGGGRDGGGLAPPPGSCSPSLSPSSNRSSPATHSP
notes: Made in reticulocyte lysate; also called 35S-RAR

Tests used:
[1] = molecular target: T1, RAC3.1 (yeast two-hybrid clone, RAC3 amino acids 401-1204) as Gal4 AD fusion (human, UniProt Q9Y6Q9 401-1204); assay: yeast two-hybrid, with or without 1 µM ligand
T1 construct: Order of the fusion (Gal4 AD at the N-terminus) follows the vector; also called Gal4 AD fusion (RAC3.1)
T1 sequence: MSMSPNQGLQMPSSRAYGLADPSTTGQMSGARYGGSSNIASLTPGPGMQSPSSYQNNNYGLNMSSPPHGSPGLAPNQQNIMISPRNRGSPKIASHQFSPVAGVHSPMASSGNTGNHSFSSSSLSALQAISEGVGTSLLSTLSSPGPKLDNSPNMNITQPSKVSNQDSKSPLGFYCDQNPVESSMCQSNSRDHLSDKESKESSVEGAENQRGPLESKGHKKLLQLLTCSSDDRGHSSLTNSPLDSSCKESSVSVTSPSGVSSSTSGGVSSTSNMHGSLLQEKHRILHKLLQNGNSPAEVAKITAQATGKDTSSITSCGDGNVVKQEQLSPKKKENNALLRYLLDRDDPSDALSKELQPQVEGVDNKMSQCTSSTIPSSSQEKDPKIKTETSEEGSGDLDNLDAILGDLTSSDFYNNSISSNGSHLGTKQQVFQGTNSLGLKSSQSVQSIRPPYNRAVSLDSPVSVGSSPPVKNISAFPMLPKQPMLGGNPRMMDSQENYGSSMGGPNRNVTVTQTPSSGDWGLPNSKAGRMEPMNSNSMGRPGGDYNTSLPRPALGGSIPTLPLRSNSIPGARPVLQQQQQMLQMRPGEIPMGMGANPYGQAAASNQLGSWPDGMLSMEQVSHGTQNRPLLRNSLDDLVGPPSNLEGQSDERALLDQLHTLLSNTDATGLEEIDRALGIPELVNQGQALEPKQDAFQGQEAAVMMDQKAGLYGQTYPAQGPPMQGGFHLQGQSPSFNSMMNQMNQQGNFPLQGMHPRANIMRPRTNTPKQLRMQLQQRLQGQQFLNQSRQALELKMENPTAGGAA

[2] = molecular target: T2, VP16 AD-full-length hRARα fusion (human, UniProt P10276 1-462); assay: mammalian two-hybrid, luciferase reporter, with or without 1 µM atRA
T2 construct: mature; also called VP16-RAR
T2 sequence: B8 chain

[3] = molecular target: T1, RAC3.1 (yeast two-hybrid clone, RAC3 …); assay: yeast two-hybrid screen for RAR-interacting proteins, Gal4 DBD-full-length hRARα as bait, HIS3 and LacZ reporters
[4] = molecular target: B8; assay: far-Western, GST-RAC3-RID on the filter, 35S-labeled receptor, 1 µM all-trans retinoic acid
[5] = molecular target: T1, RAC3.1 (yeast two-hybrid clone, RAC3 …); assay: yeast two-hybrid, β-galactosidase liquid ONPG assay
[6] = molecular target: T1, RAC3.1 (yeast two-hybrid clone, RAC3 …); assay: yeast two-hybrid, β-galactosidase ONPG assay, 1 µM ligand
[7] = molecular target: T3, full-length RAC3 (in vitro translated, 35S-labeled or unlabeled) (human, UniProt Q9Y6Q9 2-1424); assay: trimeric far-Western: unlabeled full-length RAC3 held on CBP fragments C and D, then 35S-labeled RAR, with ligand
T3 construct: Made in reticulocyte lysate; also called 35S-RAC3
T3 sequence (Q9Y6Q9 other isoform, or with tags, fused parts or gaps limits assumed): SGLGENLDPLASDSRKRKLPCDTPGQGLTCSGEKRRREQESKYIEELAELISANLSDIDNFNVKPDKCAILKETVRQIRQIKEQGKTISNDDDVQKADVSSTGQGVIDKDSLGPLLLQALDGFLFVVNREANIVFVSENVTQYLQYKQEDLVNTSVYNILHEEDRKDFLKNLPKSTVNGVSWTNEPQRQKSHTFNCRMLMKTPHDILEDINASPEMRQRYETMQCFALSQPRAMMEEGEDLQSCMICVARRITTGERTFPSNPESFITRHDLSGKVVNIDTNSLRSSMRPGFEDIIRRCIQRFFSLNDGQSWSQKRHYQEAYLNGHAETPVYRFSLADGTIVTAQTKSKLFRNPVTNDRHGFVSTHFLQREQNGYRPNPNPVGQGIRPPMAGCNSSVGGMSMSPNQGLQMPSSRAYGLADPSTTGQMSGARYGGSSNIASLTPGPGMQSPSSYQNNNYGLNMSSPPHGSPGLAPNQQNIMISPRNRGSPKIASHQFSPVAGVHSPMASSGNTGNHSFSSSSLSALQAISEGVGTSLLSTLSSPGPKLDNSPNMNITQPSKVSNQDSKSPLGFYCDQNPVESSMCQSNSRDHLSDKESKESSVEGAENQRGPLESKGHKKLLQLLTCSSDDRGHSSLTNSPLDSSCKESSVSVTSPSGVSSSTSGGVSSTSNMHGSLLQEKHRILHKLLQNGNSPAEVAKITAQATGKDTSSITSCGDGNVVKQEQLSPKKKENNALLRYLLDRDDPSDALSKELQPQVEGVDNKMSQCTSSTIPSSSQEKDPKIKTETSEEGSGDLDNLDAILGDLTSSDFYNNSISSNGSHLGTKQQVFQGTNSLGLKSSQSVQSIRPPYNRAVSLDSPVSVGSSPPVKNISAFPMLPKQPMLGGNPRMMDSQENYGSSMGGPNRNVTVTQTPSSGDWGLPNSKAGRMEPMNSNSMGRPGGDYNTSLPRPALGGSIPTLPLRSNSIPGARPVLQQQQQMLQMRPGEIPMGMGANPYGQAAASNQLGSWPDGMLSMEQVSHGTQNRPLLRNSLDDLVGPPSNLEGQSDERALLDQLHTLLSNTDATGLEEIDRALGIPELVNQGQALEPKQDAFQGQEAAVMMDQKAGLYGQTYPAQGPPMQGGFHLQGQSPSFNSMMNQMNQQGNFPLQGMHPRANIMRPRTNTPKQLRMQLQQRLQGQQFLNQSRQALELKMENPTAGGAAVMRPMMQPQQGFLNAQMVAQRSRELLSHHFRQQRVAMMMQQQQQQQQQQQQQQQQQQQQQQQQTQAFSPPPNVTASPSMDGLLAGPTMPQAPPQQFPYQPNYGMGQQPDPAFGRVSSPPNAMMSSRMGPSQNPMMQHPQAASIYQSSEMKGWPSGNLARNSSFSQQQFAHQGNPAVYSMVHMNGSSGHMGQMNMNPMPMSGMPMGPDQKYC

B1: no binding [1].

B2: no binding [2].

B3: binds [3].

B4: binds [4].

B5: no binding [2].

B6: no binding [5].

B7: binds [6].

B8: binds [7].
